Among the data in article PMC5775349 are percent of Rio2 in the 40S fraction values, retold here.

In assay [1] the target is 40S ribosomes of S223A cells (S. cerevisiae | S. cerevisiae (endogenous in yeast cells)) (UniProt P26783). The assay is described as follows: co-sedimentation; yeast lysate in TSM buffer (10 mM Tris-HCl pH7.4, 100 mM NaCl, 30 mM MgCl2), 10-40% sucrose gradient ultracentrifugation; fractions blotted with anti-HA and anti-Rio2; densitometry, duplicate experiments.
Assay [2] has as its target 40S ribosomes of cells with WT uS7 (S. cerevisiae | S. cerevisiae (endogenous in yeast cells)) (UniProt P26783). Described as above.

In the case of “Rio2, endogenous (from UniProt P40160 1-425) (natural protein)”, the values for the percent of Rio2 in the 40S fraction in assay [1] and in assay [2] were 28% and 41%, respectively.
